Laboratory results reported in the supplement of paper PMC10567573.
± gives the standard deviation.

Assay: protein stability index of a GFP-peptide fusion (GPS, HEK-293T) (PSI 1-6); higher = more stable
[1] = treatment: DMSO, c terminus: a fixed tail appended
[2] = treatment: MLN4924 1 uM, 8 h, c terminus: a fixed tail appended
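Note: 24-mer peptide tiles fused after GFP, lentivirally expressed, FACS-sorted into six equal bins by GFP/DsRed ratio, decoded by Illumina sequencing, PSI is the read-weighted mean bin number.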

Row | Sequence | protein stability index [1] | protein stability index [2] | protein stability index (treatment: DMSO, c terminus: native) | protein stability index (treatment: MLN4924 1 uM, 8 h, c terminus: native)
1 | RQRLAKNDRGDHYHWKDLNRGINI [EFHC1] | 2.96 ± 0.46 | 2.99 ± 0.21 |  | 
2 | SSYSLSDMVSNIELPTRIHEEVYF [MIA2] | 2.35 ± 0.39 | 2.5 ± 0.6 |  | 
3 | PKVEYVWRNIILMSLLHLGALYGI [SCD] | 3.26 ± 0.5 | 3.48 ± 0.06 |  | 
4 | SWEGLAVLDSLLLTLLPQLQEAWQ [RSAD1] | 3.27 ± 0.35 | 3.22 ± 0.52 |  | 
5 | IYGRSQNPVQPIGPQTPKACDSKL [MMP1] | 4.15 ± 0.17 | 4.08 ± 0.12 |  | 
6 | NACATKEQKNHTFPRLNRNKYMVT [PLD5] | 3.63 ± 0.3 | 3.77 ± 0.41 |  | 
7 | VGYGDMYPVTIGGKIVGSLCAIAG [KCNA1] | 2.09 ± 0.55 | 2.45 ± 0.28 |  | 
8 | EDRIVTQNRVFAYLCKRVPHTVLD [CEP70] | 2.27 ± 0.2 | 2.37 ± 0.37 |  | 
9 | YFQSVTSNRWLMVKIFLILIVFFI [STX5] | 2.85 ± 0.6 | 2.93 ± 0.49 |  | 
10 | PLSWAPCGPIAGSRQALSFEVPPC | 3.21 ± 0.29 | 3.07 ± 0.19 |  | 
11 | VDDKFGTGTKKVTRILDGGNPFLD [PSD2] | 4.18 ± 0.051 | 4.23 ± 0.25 |  | 
12 | SLSDQMSVLQSVWMEVLVLGVAQR [ESRRA] | 3.33 ± 0.35 | 2.98 ± 0.46 |  | 
13 | RQAELLEKRLQEIEELEREAERKI [SRPK2] | 5.13 ± 0.32 | 5.18 ± 0.14 |  | 
14 | LIGGLEAQLSELRCEMEAQNQEYK [KRT15] | 4.1 ± 0.15 | 4.52 ± 0.44 |  | 
15 | STTALGDKQRKANESKGTRESWDS [ELOA2] | 4.06 ± 0.49 | 4.34 ± 0.72 |  | 
16 | ITAGGENVPPIPVETLVKKKIPII [ACSBG2] | 3.71 ± 0.32 | 3.96 ± 0.34 |  | 
17 | ARGIAGEKFDIVKKWGINTYKCTK [ARFIP2] | 3.3 ± 0.35 | 3.27 ± 0.077 |  | 
18 | DTGVGKSSIVWRFVEDSFDPNINP [RAB22A] | 2.93 ± 0.28 | 3.08 ± 0.29 |  | 
19 | LKPRPEPPKKPSNWRRKHEEFIAT [ZC2HC1A] | 3.47 ± 0.22 | 3.56 ± 0.17 |  | 
20 | GHRPPPARSGHRCVADNTNLYVFG [KLHDC10] | 2.3 ± 0.33 | 2.44 ± 0.24 |  | 
21 | GGGPGDGGGADTGTGGEEVEALQL [FBXO33] | 5.38 ± 0.16 | 5.32 ± 0.37 |  | 
22 | LLDRARGAAAQGQTQTVAAQAQAL [PI4K2A] | 4.3 ± 0.29 | 4.38 ± 0.2 |  | 

Row | Sequence | protein stability index [1] | protein stability index [2] | protein stability index (treatment: DMSO, c terminus: native) | protein stability index (treatment: MLN4924 1 uM, 8 h, c terminus: native)
23 | CDALRTLAEARRLFPGRVSVDLML [RSAD1] | 2.05 ± 0.33 | 2.03 ± 0.37 |  | 
24 | AEVNAVDNEGNSALHIIVQYNRPI [FEM1B] | 2.48 ± 0.25 | 2.48 ± 0.23 |  | 
25 | GKKQEYLENRIQREIALAKKHGTQ [CHMP4C] | 3.92 ± 0.35 | 4.13 ± 0.14 |  | 
26 | LKLVAHPRAKSKVWKYFGFDTNAE [ZBED1] | 2.23 ± 0.39 | 2.25 ± 0.26 |  | 
27 | EDILNDPSQSEVMGEPHLMVEYKL [POMP] | 3.7 ± 0.17 | 3.72 ± 0.18 |  | 
28 | LPKELPADAVNLTIPASLDLSPLL [PLAGL1] | 3.32 ± 0.19 | 3.48 ± 0.28 |  | 
29 | QHSVPLQLELRAGAERLDALLADE [TRADD] | 4.63 ± 0.31 | 4.62 ± 0.47 |  | 
30 | HITKLKPWSLFDVLVEKYGWPHED [SRPK2] | 2.23 ± 0.33 | 2.38 ± 0.11 |  | 
31 | SIEEILEEQRVEQQTKLEAEKLKV [LSM1] | 5.11 ± 0.34 | 5.2 ± 0.22 |  | 
32 | NLLEKFFEMKKGQCKDALEIYKRF [SNAP91] | 2.41 ± 0.46 | 2.69 ± 0.8 |  | 
33 | EPSSSKDSDENSKPSVDTEGPALV [MIA2] | 5.53 ± 0.45 | 5.51 ± 0.25 |  | 
34 | GNATLLRIIYQNKCMRNGPNALIA [EDNRA] | 2.66 ± 0.79 | 2.51 ± 0.32 |  | 
35 | TPNSAGGPGAHILRRKSPASGQGP [ADAMTS4] | 4.55 ± 0.15 | 4.93 ± 0.28 |  | 
36 | QTNSETAVVALTQDQPSEAATGGA [HDAC6] | 5.31 ± 0.2 | 5.42 ± 0.062 |  | 
37 | MSDRRENDMSPSNNVVPIHVPPTT [RAB11A] | 4.67 ± 0.17 | 4.87 ± 0.12 |  | 
38 | LDSSEGSSQEDEDLGLSEGSSQDS [SPANXN3] | 5.66 ± 0.19 | 5.64 ± 0.23 |  | 
39 | DCSGLVLLCLFFGIPWEAGARQIS [PCDHGA10] | 3.45 ± 0.4 | 3.19 ± 0.2 |  | 
40 | HFSQGSALILHQRIHSGEKPYGCV [ZNF24] | 2.24 ± 0.37 | 2.55 ± 0.47 |  | 
41 | AAGELESMGFSARYNFTPDPDFKD [NETO1] | 4.71 ± 0.2 | 4.61 ± 0.18 |  | 
42 | MEKATVPVAAATAAEGEGSPPAVA [ANKRD17] | 5.67 ± 0.24 | 5.65 ± 0.11 |  | 
43 | LIPGDAYTDYVATRWYRAPELLVG [CDKL4] | 2.18 ± 0.22 | 2.18 ± 0.071 |  | 
44 | IGGNHLKGFSHLDVMLVECYDPKG [KLHL14] | 2.11 ± 0.47 | 2.21 ± 0.34 |  | 

Row | Sequence | protein stability index [1] | protein stability index [2] | protein stability index (treatment: DMSO, c terminus: native) | protein stability index (treatment: MLN4924 1 uM, 8 h, c terminus: native)
45 | PFAYLTVLDLSKSLSAALLTAALL [POMT2] | 2.98 ± 0.23 | 3.02 ± 0.16 |  | 
46 | LCLQLRDDIVSGRLPCSFVTLALL [EPB41L3] | 3.24 ± 0.61 | 2.23 ± 0.45 |  | 
47 | MSPSMLTRNSPRGCRLPSISSTTC [SPATS1] | 2.97 ± 0.18 | 3.03 ± 0.2 |  | 
48 | SCCMTEEIFGPVTCVVPFDSEEEV [ALDH8A1] | 4.71 ± 0.34 | 4.83 ± 0.27 |  | 
49 | ERMTTREKKVLEAGMGKVTSASFG [HDAC6] | 4.1 ± 0.14 | 4.19 ± 0.14 |  | 
50 | IHSIPKGTEITIAFDFDYGNCKYK [KMT2E] | 2.19 ± 0.31 | 1.98 ± 0.32 |  | 
51 | LKASMRELGLLIFFLFIGVILFSS [KCNA1] | 2.33 ± 0.45 | 2.31 ± 0.48 |  | 
52 | QDLAFWYGPRWQEVIPYTPAMQRY [HMOX1] | 2.29 ± 0.2 | 2.36 ± 0.33 |  | 
53 | NSFGAILQGSLFGLAGLLPASYTA [SLC29A1] | 2.21 ± 0.27 | 2.9 ± 0.84 |  | 
54 | ALEGSALANGRALSAGSPPVPPGW [DLX1] | 3.59 ± 0.15 | 3.86 ± 0.17 |  | 
55 | SYSREHEGRLRYPSRREPPPRRSR [CLK3] | 5.28 ± 0.2 | 5.01 ± 0.48 |  | 
56 | HLYQSSARRYAGPLHHQTQRFRLD [ELAVL3] | 2.99 ± 0.18 | 3.05 ± 0.32 |  | 
57 | SEKAMLRSRIEEQSQLICILKRRS [CCDC89] | 3.07 ± 0.2 | 3.19 ± 0.15 |  | 
58 | VQEVMEEEWNALQSVENCPEDLAQ [RPAIN] | 5.51 ± 0.21 | 5.48 ± 0.089 |  | 
59 | SPNFGFMGQLLQYESEILPSTPNP [DUSP5] | 3.59 ± 0.092 | 3.45 ± 0.48 |  | 
60 | SATNVTCYYQPAPYVSDGNFSNYY [TENT5C] | 2.05 ± 0.29 | 2.14 ± 0.28 |  | 
61 | SKTEELNREVATNSELVQSGKSEI [KRT17] | 5.34 ± 0.22 | 5.06 ± 0.1 |  | 
62 | HNRKKHLNGLQHLKAKKVWYDMFR [ZMAT5] | 2.22 ± 0.44 | 2.38 ± 0.27 |  | 
63 | LDKNKIPYKGFIPEDLEAFIELH [FEM1A] |  |  | 3.1 ± 0.29 | 3.06 ± 0.27
64 | DLVLHTNYTATVRGLRGPNLTSPA [TNXB] | 2.79 ± 0.31 | 2.71 ± 0.32 |  | 
65 | LYLFGGHHSRGNTNKFYMLDSRST [KLHDC2] | 2.16 ± 0.12 | 2.17 ± 0.18 |  | 
